Test results published in doi:10.1101/2025.04.08.647777 (bioRxiv, 2025).

Target: MBP-DIC1 (UniProt O14576 1-645)
Assay: pull-down

MBP-DIC1, sequence (O14576 whole entry): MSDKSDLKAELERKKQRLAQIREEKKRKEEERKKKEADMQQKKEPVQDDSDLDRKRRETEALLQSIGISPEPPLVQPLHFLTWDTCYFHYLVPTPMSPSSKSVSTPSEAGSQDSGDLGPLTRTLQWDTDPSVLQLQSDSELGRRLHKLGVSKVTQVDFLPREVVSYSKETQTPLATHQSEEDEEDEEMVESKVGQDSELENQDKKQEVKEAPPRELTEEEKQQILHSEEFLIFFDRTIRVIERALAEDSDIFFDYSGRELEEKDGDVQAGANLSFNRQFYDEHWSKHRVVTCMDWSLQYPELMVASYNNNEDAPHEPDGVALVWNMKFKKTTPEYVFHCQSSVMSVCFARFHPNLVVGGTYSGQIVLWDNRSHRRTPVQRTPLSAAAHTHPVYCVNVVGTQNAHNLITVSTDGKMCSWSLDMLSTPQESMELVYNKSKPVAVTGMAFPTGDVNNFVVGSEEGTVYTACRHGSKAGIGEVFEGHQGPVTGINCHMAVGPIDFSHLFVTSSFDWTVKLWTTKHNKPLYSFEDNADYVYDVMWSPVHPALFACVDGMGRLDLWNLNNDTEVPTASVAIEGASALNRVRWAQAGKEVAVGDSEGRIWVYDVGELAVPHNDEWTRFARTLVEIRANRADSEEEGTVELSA

B1: GST-CSN7A (natural protein)
chain: MSAEVKVTGQNQEQFLLLAKSAKGAALATLIHQVLEAPGVYVFGELLDMPNVRELAESDFASTFRLLTVFAYGTYADYLAEARNLPPLTEAQKNKLRHLSVVTLAAKVKCIPYAVLLEALALRNVRQLEDLVIEAVYADVLRGSLDQRNQRLEVDYSIGRDIQRQDLSAIARTLQEWCVGCEVVLSGIEEQVSRANQHKEQQLGLKQQIESEVANLKKTIKVTTAAAAAATSQDPEQHLTELREPAPGTNQRQPSKKASKGKGLRGSAKIWSKSN
binding result: binds
